Target: T1, HER2-hFc (UniProt P04626 23-652)
T1 construct: Immobilized on a CM5 sensor chip; also called HER2 immobilized on a sensor chip; not shown: hFc part
Test: SPR (Biacore T200), HER2-hFc immobilized on CM5 chip, antibody flowed at 1-16 nmol/l
Procedure: It was examined using a surface plasmon resonance method whether the Herceptin-Okt3 bispecific antibody obtained in Example 1(6) above could maintain a binding to Her2. Specifically: the Herceptin-Okt3 bispecific antibody was allowed to flow over HER2 immobilized on a sensor chip at a predetermined flow rate, and measurement was conducted using an intermolecular interaction analyzer. The Herceptin-Okt3 bispecific antibody purified in Example 1(6) above was diluted with 1×PBS-Tween20 to 1 nmol/l. 2 nmol/l. 4 nmol/l. 8 nmol/l, and 16 nmol/l. After the dilution, a surface plasmon resonance measuring apparatus (Biacore T200, manufactured by Cytiva) was used to measure the binding strength by allowing the diluted solution containing the Herceptin-Okt3 bispecific antibody to flow over HER2-hFc immobilized on a CM5 sensor chip (manufactured by GE Healthcare).
In FIG. 7, the horizontal axis indicates the time (minute), and the vertical axis indicates the response unit (RU).

B1: Herceptin-OKT3 bispecific antibody (bispecific antibody)
heavy 1: not shown
light 1: DIQMTQSPSSLSASVGDRVTITCSASSSVSYMNWYQQTPGKAPKRWIYDTSKLASGVPSRFSGSGSGTDYTFTISSLQPEDIATYYCQQWSSNPFTFGQGTKLQITRTVA
heavy 2: not shown
light 2: not shown
Question: B1 was tested. Which Kd did it give?
Answer: Its Kd is 2.25 nM.

Source: patent US20260055207A1 (NATIONAL UNIVERSITY CORPORATION YAMAGATA UNIVERSITY, published 2026)
